Data from patent US20230265169A1 (US Dept. of Health and Human Services, published 2023).

Assays:
[1] = target: T1, MERS-CoV RBD antigen (receptor binding domain, amino acids 377 to 588 of the spike protein) (MERS-CoV, UniProt K9N5Q8 377-588)
[2] = target: T2, MERS-CoV spike protein on live MERS-CoV (EMC, KNIH-002, KNIH-016 and KNIH-042 strains) (MERS-CoV); assay: cell-based or functional assay; design: ND50 (PRNT with MERS-CoV): unit not given beside the values
T2 chain: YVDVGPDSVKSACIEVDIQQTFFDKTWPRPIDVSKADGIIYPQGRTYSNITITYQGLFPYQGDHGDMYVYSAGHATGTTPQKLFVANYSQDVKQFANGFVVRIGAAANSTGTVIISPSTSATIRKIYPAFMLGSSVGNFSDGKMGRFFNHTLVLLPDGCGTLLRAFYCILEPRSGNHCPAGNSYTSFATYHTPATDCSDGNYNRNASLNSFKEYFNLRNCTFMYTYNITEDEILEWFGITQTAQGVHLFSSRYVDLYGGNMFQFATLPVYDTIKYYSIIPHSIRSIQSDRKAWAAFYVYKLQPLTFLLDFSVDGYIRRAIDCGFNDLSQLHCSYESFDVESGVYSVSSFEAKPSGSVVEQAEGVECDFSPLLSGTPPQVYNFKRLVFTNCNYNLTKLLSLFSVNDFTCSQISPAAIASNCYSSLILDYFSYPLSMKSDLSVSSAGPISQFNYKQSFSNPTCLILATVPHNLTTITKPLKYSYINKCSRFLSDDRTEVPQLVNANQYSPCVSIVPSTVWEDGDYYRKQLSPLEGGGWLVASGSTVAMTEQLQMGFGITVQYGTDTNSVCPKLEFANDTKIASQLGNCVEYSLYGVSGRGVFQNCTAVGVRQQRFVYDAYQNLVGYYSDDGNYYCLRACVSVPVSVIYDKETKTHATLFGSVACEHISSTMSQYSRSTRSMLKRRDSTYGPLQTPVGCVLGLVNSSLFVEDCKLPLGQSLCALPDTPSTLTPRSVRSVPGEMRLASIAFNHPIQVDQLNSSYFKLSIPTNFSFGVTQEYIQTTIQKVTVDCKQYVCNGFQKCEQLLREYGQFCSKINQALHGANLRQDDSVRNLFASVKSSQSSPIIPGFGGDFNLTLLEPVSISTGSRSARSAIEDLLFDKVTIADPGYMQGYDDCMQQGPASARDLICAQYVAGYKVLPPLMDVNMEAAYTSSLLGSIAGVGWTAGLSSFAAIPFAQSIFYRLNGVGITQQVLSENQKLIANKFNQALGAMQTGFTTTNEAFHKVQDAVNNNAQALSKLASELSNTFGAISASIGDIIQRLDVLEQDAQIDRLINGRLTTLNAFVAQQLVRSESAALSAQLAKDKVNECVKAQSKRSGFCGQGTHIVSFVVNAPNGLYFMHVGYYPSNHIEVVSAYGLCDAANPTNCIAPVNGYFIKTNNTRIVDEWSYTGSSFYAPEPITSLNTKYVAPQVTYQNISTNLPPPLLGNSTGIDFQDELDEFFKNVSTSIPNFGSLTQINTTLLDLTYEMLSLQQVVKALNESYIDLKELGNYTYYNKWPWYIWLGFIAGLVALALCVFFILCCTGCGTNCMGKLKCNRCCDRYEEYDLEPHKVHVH

[3] = target: T3, MERS-CoV S1 antigen (S1 domain, amino acids 1 to 757 of the spike protein) (MERS-CoV, UniProt K9N5Q8 18-757); assay: SPR, S1 antigen on CM5 chip, antibody as analyte (called avidity)
T3 construct: also called MERS-CoV S1 domain

[4] = target: T1, MERS-CoV RBD antigen (receptor binding …); assay: SPR, RBD antigen on CM5 chip, antibody as analyte (called avidity)
[5] = target: MERS-CoV full-length spike trimer antigen (amino acids 1 to 1275 of the spike protein, lacking the … (MERS-CoV, UniProt K9N5Q8 18-1275))
[6] = target: T1, MERS-CoV RBD antigen (receptor binding …); assay: ELISA, RBD antigen coated
[7] = target: T1, MERS-CoV RBD antigen (receptor binding …); assay: SPR, RBD antigen attached on a CM5 chip, antibody loaded, HBS-EP
[8] = target: T3, MERS-CoV S1 antigen (S1 domain, amino …)

B1: 90-F2 antibody (antibody, V domains shown)
VH: QVQLVQSGAEVKKPGASVKVSCKASGYTFTTYYMHWVRQAPGQGLEWMGIINPSGGSTSYAQKFQGRVTMTRDTSTSTVYMELSSLRSEDTAVYYCARGAVVVILDYWGQGTLVTVSS
VL: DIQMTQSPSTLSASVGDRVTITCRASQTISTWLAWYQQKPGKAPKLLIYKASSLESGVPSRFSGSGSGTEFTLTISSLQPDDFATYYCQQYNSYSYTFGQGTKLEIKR
With B1 the “EC50 (read off the curve)” value [1] was about 0.07 µg/mL, the “ND50 (PRNT with MERS-CoV)” value [2] was 54 and the “ND50 antibody conc. (PRNT with MERS-CoV)” value [2] was 0.19 µg/mL. It also gave a Kd [3] of 6.6 nM, a koff [3] of 0.000882 s⁻¹ and a kon [3] of 134000 M⁻¹ s⁻¹. The Kd [4] was 5.86 nM, the koff [4] was 0.0014 s⁻¹ and the kon [4] was 238000 M⁻¹ s⁻¹.

B2: 90-C4 antibody (antibody, V domains shown)
VH: QVQLQESGPGLVKPSGTLSLTCAVSGGSINSSNWWSWVRQPPGKGLEWIGEIYYSGSTNYNPSLKSRVTTSVDNSKNQFSLKLSSVTAADTAVYYCATFDSGGYNPNWFDPWGQGTLVTVSS
VL: QSALTQPPSVSGAPGQRVTISCTGSSSSIGAGYDVHWYQQLPGTAPKLLIYGNSNRPSGVPDRFSGSKSGTSASLAITGLQAEDEADYYCQSYDSSLSGYVFGTGTKVTVLG
In the case of B2, the “EC50 (read off the curve)” value [5] is reported as about 0.08 µg/mL, the binding result [6] is reported as “no binding (tested: up to 10 µg/ml)” and the “ND50 (PRNT with MERS-CoV)” value [2] is reported as 0.78. The “ND50 antibody conc. (PRNT with MERS-CoV)” value [2] was 12.8 µg/mL.

B3: 90-B2 antibody (antibody, V domains shown)
VH: QVQLQESGPGLVKPSETLSLTCTVSGGSISSSSYYWGWIRQPPGKGLEWIGSIYYSGNTYYNPSLKSRVTISVDTSKNHFSLRLSSVTAADTAVYFCARSLPHYDSTGYLLYWGQGTLVTVSS
VL: EIVLTQSPATLSLSPGGRATLSCRASQSVSRYLAWYQQKPGRAPRLLIYDASNRAPGIPARFSGSGSGTDFTLTISSLEPEDFAVYYCQQRSNWPQTTFGPGTKVDIKR
B3 was tested, and the “ND50 (PRNT with MERS-CoV)” value [2] was 39.5, the “ND50 antibody conc. (PRNT with MERS-CoV)” value [2] was 0.25 µg/mL and the Kd [3] was at most 0.0751 nM. For the same binder, the koff [3] was at most 1e-05 s⁻¹, the kon [3] was 131000 M⁻¹ s⁻¹ and the binding result [7] was “no binding (tested: 500 nM)”.

B4: 90-E6 antibody (antibody, V domains shown)
VH: EVQLVESGGGLVQPGRSLRLSCAASGFTFDDHAMHWVRQAPGKGLEWVSGFSWNSGSIGYADSVKGRFTISRDNAKNSLYLQMNSLRAEDTALYYCAKDRRSDYYFYGMDVWGQGTTVTVSS
VL: QSVLTQPPSVSAAPGQKVTISCSGSRSNIGNNYVSWYQQLPGTAPKLLIYDNNKRPSGIPDRFSGSKSGTSATLGITGLQTGDEADYYCGTWDSSLNAGVFGGGTKLTVLG
With B4 the “EC50 (read off the curve)” value [1] was about 0.09 µg/mL, the “ND50 (PRNT with MERS-CoV)” value [2] was 0.68 and the “ND50 antibody conc. (PRNT with MERS-CoV)” value [2] was 14.8 µg/mL.

B5: 90-A3 antibody (antibody, V domains shown)
VH: QVQLVQSGAEVKKPGASVKVSCMTSGYTFTSYGISWVRQAPGQGLEWMGWISAYNGNTNYAQKLQGRVTMTTDTSTSTAYMELRSLRSDDTAVYYCARDRGAYWDCGGDCYLSAFDYWGQGTLVTVSS
VL: QAVVTQPPSVSAAPGQKVTISCSGSSSNIGNNYVSWYQQLPGTAPKLLIYDNNKRPSGIPDRFSGSKSGTSATLGITGLQTGDEADYYCGTWDSSLSAVVFGGGTKLTVLG
In the case of B5, the binding result [6] is reported as “no binding (tested: up to 10 µg/ml)”, the “ND50 (PRNT with MERS-CoV)” value [2] is reported as 0.63 and the “ND50 antibody conc. (PRNT with MERS-CoV)” value [2] is reported as 15.8 µg/mL.

B6: 90-B7 antibody (antibody, V domains shown)
VH: EVQLLESGGGLVKPGGSLRLSCAASGFTFGSYSMTWVRQAPGKGLEWVSSISSSSSYIYYADSVKGRFTISRDNAKNSLFLQMNSLRAEDTAVYYCARGNGYCSHNSCYKIGVWFDPWGQGTLVTVSS
VL: QAVVTQPPSVSAAPGQKVTISCSGSSSNIGNNYVSWYQQLPGTAPKLLIYDNNKRPSGIPDRFSGSKSGTSATLGITGLQTGDEADYYCGTWDSSLSAFVFGTGTKVTVLG
In the case of B6, the “ND50 (PRNT with MERS-CoV)” value [2] is reported as 14.9, the “ND50 antibody conc. (PRNT with MERS-CoV)” value [2] is reported as 0.67 µg/mL and the Kd [3] is reported as 0.153 nM. The koff [3] was 0.000104 s⁻¹, the kon [3] was 681000 M⁻¹ s⁻¹ and the binding result [7] was “no binding (tested: 500 nM)”.

B7: 77-A6 antibody (antibody, V domains shown)
VH: EVQLLESGGGLVQPGGSLRLSCADSGLTFSSYAMSWVRQAPGKGLEWVSAISVSGGSTYYSDSVKGRFTISRDNSKNTLSLQMNSLRAEDTAVYYCVKARSIVGPFDYWGQGTLVTVSS
VL: QSALTQPPSVSAAPGQKVTISCSGSSSNIGNNYVSWYQHLPGTAPKLLIYDNIMRPSGIPDRFSGSKSGTSATLGITGLQTGDEADYYCGTWDTSLSAVVFGGGTKLTVLG
For B7, the “EC50 (read off the curve)” value [1] was about 0.06 µg/mL, the “ND50 (PRNT with MERS-CoV)” value [2] was 95.7 and the “ND50 antibody conc. (PRNT with MERS-CoV)” value [2] was 0.1 µg/mL. For the same binder, the Kd [3] was 0.695 nM, the koff [3] was 4.43e-05 s⁻¹ and the kon [3] was 63800 M⁻¹ s⁻¹. For the same binder, the Kd [4] was 0.673 nM, the koff [4] was 3.15e-05 s⁻¹ and the kon [4] was 46700 M⁻¹ s⁻¹.

B8: 77-A5 antibody (antibody, V domains shown)
VH: QVQLVQSGAEVKKPGSSVKVSCKASGGTFRSHAISWVRQAPGQGLEWMGGIIPIFASANYAQKFQGRVTITADESTSTAYMDLSSLRSDDTAVYYCAKNVSPKSYSGRYSISYFYGVDVWGQGTTVTVSS
VL: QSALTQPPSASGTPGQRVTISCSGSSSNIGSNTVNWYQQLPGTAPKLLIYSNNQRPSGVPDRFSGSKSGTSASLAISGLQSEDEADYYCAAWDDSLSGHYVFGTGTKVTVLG
For B8, the “EC50 (read off the curve)” value [1] was about 0.008 µg/mL, the “ND50 (PRNT with MERS-CoV)” value [2] was 35.6 and the “ND50 antibody conc. (PRNT with MERS-CoV)” value [2] was 0.28 µg/mL. For the same binder, the Kd [3] was at most 0.0751 nM, the koff [3] was at most 1e-05 s⁻¹ and the kon [3] was 133000 M⁻¹ s⁻¹. For the same binder, the Kd [4] was 0.161 nM, the koff [4] was 2.08e-05 s⁻¹ and the kon [4] was 130000 M⁻¹ s⁻¹.

B9: 90-A9 antibody (antibody, V domains shown)
VH: QVQLVQSGAEVKKPGSSVKVSCKASGGTFSSFPISWVRQAPGQGLEWMGGIIPIFGAANYAQKFQGRVTITADESTSTAYMELSSLRSEDTAVYYCARNYEEIVVIPAIMNFGYWGQGTLVTVSS
VL: EIVLTQSPGTLSLSPGERATLSCRASQSVASSYLAWYQQKPGQAPRLLIYGTSSRATGIPDRFSGSGSGADFTLTISRLEPEDFAVYYCQQYGTSPLTFGGGTKVEIK
With B9 the binding result [6] was “no binding (tested: up to 10 µg/ml)”, the “ND50 (PRNT with MERS-CoV)” value [2] was 0.58 and the “ND50 antibody conc. (PRNT with MERS-CoV)” value [2] was 17.3 µg/mL.

B10: 90-E5 antibody (antibody, V domains shown)
VH: QVQLVQSGAEVKKPGSSVKVSCKASGGTFSSYTINWVRQAPGQGLEWMGGIIPIFGTANYAQKFQGRVTITADASTSTAYMELSSLRSEDTAVYYCARVLLRSSSWFSSNWFDPWGQGTLVTVSS
VL: QSVLTQPPSVSGAPGQRVTISCTGSSSNIGAGYDVHWYQQLPGTAPKVLIYGNSNRPSGVPDRFSGSKSDTSASLAITGLQAEDEADYYCQSYDSSLSVVFGGGTKLTVLG
B10 was tested, and the “EC50 (read off the curve)” value [5] was about 0.01 µg/mL, the “EC50 (read off the curve)” value [8] was about 0.03 µg/mL and the “EC50 (read off the curve)” value [1] was about 0.07 µg/mL. The “ND50 (PRNT with MERS-CoV)” value [2] was 6.6 and the “ND50 antibody conc. (PRNT with MERS-CoV)” value [2] was 1.51 µg/mL.

B11: 90-F1 antibody (antibody, V domains shown)
VH: QVQLVQSGAEVKRPGSSVKVSCKTSGGTFNNNAINWVRQAPGQGLEWMGGIIPFFGIAKYAQKFQGRVTITADESTSTAYMELSSLRSEDTAVYYCARDLPRESSYGSGSYYTHYYAMDVWGQGTTVTVSS
VL: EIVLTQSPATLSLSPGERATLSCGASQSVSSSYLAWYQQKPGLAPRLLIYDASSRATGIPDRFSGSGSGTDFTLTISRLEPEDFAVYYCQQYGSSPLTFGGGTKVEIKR
For B11, the “ND50 (PRNT with MERS-CoV)” value [2] was 956, the “ND50 antibody conc. (PRNT with MERS-CoV)” value [2] was 0.01 µg/mL and the Kd [3] was 0.153 nM. For the same binder, the koff [3] was 9.88e-05 s⁻¹, the kon [3] was 648000 M⁻¹ s⁻¹ and the Kd [4] was 0.072 nM. For the same binder, the koff [4] was 2.71e-05 s⁻¹ and the kon [4] was 376000 M⁻¹ s⁻¹.
